In article PMC6420079 one finds Kd data, which are given here for 1 molecule.

The data set has as its target Fur (Salmonella enterica serovar Typhimurium …, UniProt A0A0H3NJ13 1-150). The data set is described as follows: fluorescence anisotropy.

B1: furbox (dsDNA)
DNA 1: GGGGATAATGATAATCATTATCGGG
DNA 2: CCCGATAATGATTATCATTATCCCC
In turn, B1 returned a Kd of 0.056 µM.
